Measured values: US20260116928A1, “COMPOSITIONS AND PARTICLES FOR PAYLOAD DELIVERY” (Thornhill Therapeutics, Inc., priority 2019, published 2026)

System: pancreatin
Assay: Pancreatin assay (stability of SEQ ID NO: 3 and exenatide formulations)
Conditions: after 120 minutes of incubation with pancreatin; FIG. 11

B1: SEQ ID NO: 3: Cholix carrier protein having the sequence of SEQ ID NO: 3 (protein)
chain: MVEEALNIFDECRSPCSLTPEPGKPIQSKLSIPSDVVLDEGVLYYSMTINDEQNDIKDEDKGESIITIGEFATVRATRHYVNQDAPFGVIHLDITTENGTKTYSYNRKEGEFAINWLVPIGEDSPASIKISVDELDQQRNIIEVPKLYSIDLDNQTLEQWKTQGNVSFSVTRPEHNIAISWPSVSYKAAQKEGSRHKRWAHWHTGLALCWLVPMDAIYNYITQQNCTLGDNWFGGSYETVAGTPKVITVKQGIEQKPVEQRIHFSKGSGGSGGGGSGGGGSPRRRRSSSRPVRRRRRPRVSRRRRRRGGRRRRHHHHHH
  degradation of SEQ ID NO: 3 by pancreatin: completely degraded
